Reference: the supplement of paper PMC10065799, “High-throughput profiling of sequence recognition by tyrosine kinases and SH2 domains using bacterial peptide display” (eLife, 2023)

What was measured:
Grb2 SH2 = Grb2 SH2 (UniProt P62993); assay: SH2 binding enrichment of the phosphorylated peptide, bacterial display (enrichment ratio); higher = better substrate or ligand; peptides without Tyr show the background
SHP2-C SH2 = assay: as above
c-Src SH2 = assay: as above
AncSZ = assay: phosphorylation enrichment, bacterial display (enrichment ratio); higher = better substrate or ligand; peptides without Tyr show the background
Jak2 = Jak2 (UniProt O60674); assay: as above
EPHB1 = EPHB1 (UniProt P54762); assay: as above
EPHB2 = EPHB2 (UniProt P29323); assay: as above
Fer (mouse) = assay: as above
Fyn = Fyn (UniProt P06241); assay: as above
FGFR1 = FGFR1 (UniProt P11362); assay: as above
MERTK = MERTK (UniProt Q12866); assay: as above
FGFR3 = FGFR3 (UniProt P22607); assay: as above
Fes = Fes (UniProt P07332); assay: as above
c-Src = assay: as above
c-Abl (mouse) = assay: as above
Hck = Hck (UniProt P08631); assay: as above
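Wherever SH2 binding enrichment of the phosphorylated peptide, bacterial display is given: peptide library displayed on the E. coli surface as eCPX fusions, selected cells deep-sequenced, score is each peptide's frequency after selection divided by its frequency in the input.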
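Wherever phosphorylation enrichment, bacterial display is given: 11-residue human phosphosite peptides and single-mutation variants displayed on the E. coli surface, counted by deep sequencing, each peptide's frequency after selection divided by its frequency in the unselected input library; frequency after pTyr selection over input frequency; kinase dosed for 20-30% of maximal phosphorylation in three min.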

Chain of Hck (P08631 whole entry, looked up, the tested form may be a part): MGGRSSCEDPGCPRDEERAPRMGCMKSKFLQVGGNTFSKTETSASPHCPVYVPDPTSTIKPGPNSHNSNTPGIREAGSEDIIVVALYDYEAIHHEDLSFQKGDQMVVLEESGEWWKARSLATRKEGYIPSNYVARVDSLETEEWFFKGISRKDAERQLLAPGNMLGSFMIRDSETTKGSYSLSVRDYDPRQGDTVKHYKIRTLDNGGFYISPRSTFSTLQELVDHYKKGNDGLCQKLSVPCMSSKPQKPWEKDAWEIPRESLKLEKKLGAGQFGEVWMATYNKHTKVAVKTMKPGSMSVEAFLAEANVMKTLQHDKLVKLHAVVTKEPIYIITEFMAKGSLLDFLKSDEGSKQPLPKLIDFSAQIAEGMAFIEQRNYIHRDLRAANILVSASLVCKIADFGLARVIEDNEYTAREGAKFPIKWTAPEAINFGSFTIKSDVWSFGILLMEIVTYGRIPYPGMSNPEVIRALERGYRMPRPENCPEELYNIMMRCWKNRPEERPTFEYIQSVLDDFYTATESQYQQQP
Chain of Fyn (P06241 whole entry, looked up): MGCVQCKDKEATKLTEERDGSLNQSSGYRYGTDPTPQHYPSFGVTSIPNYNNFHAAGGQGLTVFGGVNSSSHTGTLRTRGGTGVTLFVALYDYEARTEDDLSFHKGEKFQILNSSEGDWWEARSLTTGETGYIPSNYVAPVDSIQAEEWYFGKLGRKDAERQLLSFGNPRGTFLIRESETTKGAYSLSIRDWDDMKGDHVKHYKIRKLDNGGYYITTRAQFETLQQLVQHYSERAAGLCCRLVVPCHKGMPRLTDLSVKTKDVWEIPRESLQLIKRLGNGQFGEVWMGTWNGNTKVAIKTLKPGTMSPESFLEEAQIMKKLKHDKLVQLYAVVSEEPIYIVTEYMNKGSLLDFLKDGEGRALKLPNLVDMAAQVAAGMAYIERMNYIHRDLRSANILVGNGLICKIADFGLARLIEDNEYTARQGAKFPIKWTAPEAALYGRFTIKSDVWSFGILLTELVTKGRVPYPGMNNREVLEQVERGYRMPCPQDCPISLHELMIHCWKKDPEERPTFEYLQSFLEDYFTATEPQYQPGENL
Chain of Jak2 (O60674 whole entry, looked up): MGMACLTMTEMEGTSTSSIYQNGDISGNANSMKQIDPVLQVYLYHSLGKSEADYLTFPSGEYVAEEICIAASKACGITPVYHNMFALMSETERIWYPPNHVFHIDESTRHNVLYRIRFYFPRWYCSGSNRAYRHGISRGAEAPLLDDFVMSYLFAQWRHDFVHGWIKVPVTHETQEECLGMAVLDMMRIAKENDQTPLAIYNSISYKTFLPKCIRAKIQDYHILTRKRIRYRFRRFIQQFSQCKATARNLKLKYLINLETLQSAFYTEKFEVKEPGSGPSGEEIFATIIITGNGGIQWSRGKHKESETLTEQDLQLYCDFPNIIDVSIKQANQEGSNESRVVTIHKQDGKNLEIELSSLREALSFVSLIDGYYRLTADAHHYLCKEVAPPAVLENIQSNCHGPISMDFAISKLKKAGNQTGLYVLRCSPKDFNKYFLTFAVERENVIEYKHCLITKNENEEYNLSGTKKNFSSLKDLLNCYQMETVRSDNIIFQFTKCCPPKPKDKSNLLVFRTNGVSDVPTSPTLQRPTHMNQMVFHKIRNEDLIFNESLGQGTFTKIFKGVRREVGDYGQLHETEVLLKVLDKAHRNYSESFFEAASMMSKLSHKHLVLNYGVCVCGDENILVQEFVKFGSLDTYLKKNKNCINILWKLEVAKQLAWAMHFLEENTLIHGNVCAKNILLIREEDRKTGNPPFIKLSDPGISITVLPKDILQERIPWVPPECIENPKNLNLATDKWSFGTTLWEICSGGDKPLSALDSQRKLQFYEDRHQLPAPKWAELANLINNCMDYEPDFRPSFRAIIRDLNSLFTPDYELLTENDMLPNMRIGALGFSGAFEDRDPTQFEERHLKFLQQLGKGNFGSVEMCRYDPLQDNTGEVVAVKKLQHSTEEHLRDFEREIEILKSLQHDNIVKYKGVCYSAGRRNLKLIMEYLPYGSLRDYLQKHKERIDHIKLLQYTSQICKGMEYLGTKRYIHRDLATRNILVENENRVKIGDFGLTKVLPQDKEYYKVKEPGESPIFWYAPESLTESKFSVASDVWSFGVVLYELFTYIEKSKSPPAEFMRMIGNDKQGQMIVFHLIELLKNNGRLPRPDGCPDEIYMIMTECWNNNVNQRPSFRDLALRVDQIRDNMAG
Chain of FGFR1 (P11362 whole entry, looked up): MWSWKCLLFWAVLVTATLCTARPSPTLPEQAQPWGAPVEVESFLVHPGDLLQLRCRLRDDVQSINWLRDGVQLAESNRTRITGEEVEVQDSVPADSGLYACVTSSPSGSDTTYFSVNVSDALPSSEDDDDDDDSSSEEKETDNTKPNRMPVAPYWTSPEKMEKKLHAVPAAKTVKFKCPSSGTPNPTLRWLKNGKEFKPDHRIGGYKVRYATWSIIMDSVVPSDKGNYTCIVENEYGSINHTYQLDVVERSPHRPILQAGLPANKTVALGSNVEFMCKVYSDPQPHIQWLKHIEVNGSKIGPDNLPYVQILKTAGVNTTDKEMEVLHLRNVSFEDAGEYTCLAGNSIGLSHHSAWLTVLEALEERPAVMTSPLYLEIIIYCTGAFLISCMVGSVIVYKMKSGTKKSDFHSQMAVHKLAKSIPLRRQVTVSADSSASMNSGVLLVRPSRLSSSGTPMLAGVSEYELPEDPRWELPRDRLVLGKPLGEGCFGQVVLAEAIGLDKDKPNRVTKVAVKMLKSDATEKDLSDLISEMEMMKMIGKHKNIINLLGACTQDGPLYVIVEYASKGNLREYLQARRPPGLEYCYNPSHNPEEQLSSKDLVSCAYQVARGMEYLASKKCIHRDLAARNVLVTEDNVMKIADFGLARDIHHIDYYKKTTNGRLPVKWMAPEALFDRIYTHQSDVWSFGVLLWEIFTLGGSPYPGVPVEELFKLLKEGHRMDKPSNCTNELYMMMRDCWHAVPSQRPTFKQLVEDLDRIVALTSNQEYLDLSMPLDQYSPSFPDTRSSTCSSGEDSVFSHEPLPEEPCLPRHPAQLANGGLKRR
Chain of Grb2 SH2 (P62993 whole entry, looked up): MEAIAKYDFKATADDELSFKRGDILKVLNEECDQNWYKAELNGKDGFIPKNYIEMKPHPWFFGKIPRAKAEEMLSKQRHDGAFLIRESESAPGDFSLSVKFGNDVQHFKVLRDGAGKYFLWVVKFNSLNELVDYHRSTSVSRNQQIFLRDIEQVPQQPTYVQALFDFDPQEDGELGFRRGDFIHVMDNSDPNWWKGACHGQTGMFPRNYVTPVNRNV
Chain of Fes (P07332 whole entry, looked up): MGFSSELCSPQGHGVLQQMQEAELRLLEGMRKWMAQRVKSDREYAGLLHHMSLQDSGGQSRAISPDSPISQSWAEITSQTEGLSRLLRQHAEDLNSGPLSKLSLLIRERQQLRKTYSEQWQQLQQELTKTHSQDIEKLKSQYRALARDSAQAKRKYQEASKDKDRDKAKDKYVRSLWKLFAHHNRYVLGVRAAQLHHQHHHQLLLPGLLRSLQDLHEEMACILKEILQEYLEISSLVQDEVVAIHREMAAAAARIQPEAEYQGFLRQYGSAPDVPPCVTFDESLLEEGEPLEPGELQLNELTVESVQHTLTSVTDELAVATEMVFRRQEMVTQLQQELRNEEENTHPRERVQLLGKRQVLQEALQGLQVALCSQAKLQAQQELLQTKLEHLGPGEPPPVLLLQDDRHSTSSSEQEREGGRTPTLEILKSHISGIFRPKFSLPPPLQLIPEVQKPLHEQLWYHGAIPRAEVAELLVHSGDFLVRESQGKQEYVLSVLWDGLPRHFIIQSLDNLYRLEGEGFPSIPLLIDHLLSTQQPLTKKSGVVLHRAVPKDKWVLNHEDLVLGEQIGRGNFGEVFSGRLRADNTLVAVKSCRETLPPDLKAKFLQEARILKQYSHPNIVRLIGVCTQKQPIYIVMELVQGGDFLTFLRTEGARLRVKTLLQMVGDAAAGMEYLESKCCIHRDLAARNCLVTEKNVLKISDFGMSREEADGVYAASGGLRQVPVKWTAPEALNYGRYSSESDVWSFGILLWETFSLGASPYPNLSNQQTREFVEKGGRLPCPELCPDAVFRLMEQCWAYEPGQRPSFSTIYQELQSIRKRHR
Chain of EPHB1 (P54762 whole entry, looked up): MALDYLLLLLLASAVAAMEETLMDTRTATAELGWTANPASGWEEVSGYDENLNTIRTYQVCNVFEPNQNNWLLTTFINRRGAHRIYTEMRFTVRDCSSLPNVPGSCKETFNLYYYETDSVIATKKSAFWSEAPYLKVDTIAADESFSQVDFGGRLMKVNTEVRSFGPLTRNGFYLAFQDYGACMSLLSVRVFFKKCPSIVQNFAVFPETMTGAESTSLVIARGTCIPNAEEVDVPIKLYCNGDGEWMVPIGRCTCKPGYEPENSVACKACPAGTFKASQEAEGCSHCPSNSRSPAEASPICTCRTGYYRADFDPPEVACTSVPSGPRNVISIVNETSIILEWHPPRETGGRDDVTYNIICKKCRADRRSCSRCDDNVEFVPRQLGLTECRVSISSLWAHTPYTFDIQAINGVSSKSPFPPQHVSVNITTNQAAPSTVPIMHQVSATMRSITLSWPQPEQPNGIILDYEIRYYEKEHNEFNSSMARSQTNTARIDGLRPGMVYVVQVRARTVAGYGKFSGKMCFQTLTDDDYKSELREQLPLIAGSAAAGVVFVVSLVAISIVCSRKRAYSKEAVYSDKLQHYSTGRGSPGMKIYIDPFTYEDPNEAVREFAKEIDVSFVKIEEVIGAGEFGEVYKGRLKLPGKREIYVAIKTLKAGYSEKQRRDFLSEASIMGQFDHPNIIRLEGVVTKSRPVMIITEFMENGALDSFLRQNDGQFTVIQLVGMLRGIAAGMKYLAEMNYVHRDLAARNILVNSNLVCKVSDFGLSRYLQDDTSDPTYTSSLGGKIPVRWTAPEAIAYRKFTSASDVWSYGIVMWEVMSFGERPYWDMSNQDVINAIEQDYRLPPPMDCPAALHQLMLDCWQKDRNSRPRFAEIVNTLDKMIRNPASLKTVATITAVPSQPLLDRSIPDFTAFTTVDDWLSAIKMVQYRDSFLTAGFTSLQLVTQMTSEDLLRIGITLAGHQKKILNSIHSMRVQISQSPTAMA

In the case of KKRSVYLKVLF [CC2D2A_Y683], the SH2 binding enrichment (Grb2 SH2) is reported as 0.869, the SH2 binding enrichment (SHP2-C SH2) is reported as 0.983 and the SH2 binding enrichment (c-Src SH2) is reported as 0.679. The phosphorylation enrichment (AncSZ) was 1.01, the phosphorylation enrichment (Jak2) was 0.897 and the phosphorylation enrichment (EPHB1) was 0.453. The phosphorylation enrichment (EPHB2) was 0.543, the phosphorylation enrichment (Fer (mouse)) was 0.478 and the phosphorylation enrichment (Fyn) was 0.446. It also gave a phosphorylation enrichment (FGFR1) of 0.494, a phosphorylation enrichment (MERTK) of 0.361 and a phosphorylation enrichment (FGFR3) of 0.721. For the same sequence, the phosphorylation enrichment (Fes) was 1.19, the phosphorylation enrichment (c-Src) was 0.391 and the phosphorylation enrichment (c-Abl (mouse)) was 0.706. It also gave a phosphorylation enrichment (Hck) of 0.401.
In the case of FFIMMYTGSNV [DNAJC13_Y1131], the SH2 binding enrichment (Grb2 SH2) is reported as 0.9, the SH2 binding enrichment (SHP2-C SH2) is reported as 0.732 and the SH2 binding enrichment (c-Src SH2) is reported as 0.508. The phosphorylation enrichment (AncSZ) was 1.3, the phosphorylation enrichment (Jak2) was 1.06 and the phosphorylation enrichment (EPHB1) was 0.681. It also gave a phosphorylation enrichment (EPHB2) of 0.664, a phosphorylation enrichment (Fer (mouse)) of 0.589 and a phosphorylation enrichment (Fyn) of 0.433. The phosphorylation enrichment (FGFR1) was 0.619, the phosphorylation enrichment (MERTK) was 0.477 and the phosphorylation enrichment (FGFR3) was 0.782. The phosphorylation enrichment (Fes) was 1.29, the phosphorylation enrichment (c-Src) was 0.4 and the phosphorylation enrichment (c-Abl (mouse)) was 0.779. For the same sequence, the phosphorylation enrichment (Hck) was 0.505.
SSWPGYVRPLP [HSPB1_Y54] showed an SH2 binding enrichment (Grb2 SH2) of 0.97, an SH2 binding enrichment (SHP2-C SH2) of 0.654 and an SH2 binding enrichment (c-Src SH2) of 0.741. The phosphorylation enrichment (AncSZ) was 0.774, the phosphorylation enrichment (Jak2) was 2.22 and the phosphorylation enrichment (EPHB1) was 0.48. For the same sequence, the phosphorylation enrichment (EPHB2) was 0.423, the phosphorylation enrichment (Fer (mouse)) was 0.459 and the phosphorylation enrichment (Fyn) was 0.52. The phosphorylation enrichment (FGFR1) was 0.491, the phosphorylation enrichment (MERTK) was 0.407 and the phosphorylation enrichment (FGFR3) was 0.458. It also gave a phosphorylation enrichment (Fes) of 0.648, a phosphorylation enrichment (c-Src) of 0.491 and a phosphorylation enrichment (c-Abl (mouse)) of 0.54. The phosphorylation enrichment (Hck) was 0.485.
PDSVDYRKKGF [CTSK_Y121_YF] showed an SH2 binding enrichment (Grb2 SH2) of 0.755, an SH2 binding enrichment (SHP2-C SH2) of 0.638 and an SH2 binding enrichment (c-Src SH2) of 0.625. For the same sequence, the phosphorylation enrichment (AncSZ) was 0.524, the phosphorylation enrichment (Jak2) was 0.49 and the phosphorylation enrichment (EPHB1) was 0.468. The phosphorylation enrichment (EPHB2) was 0.646, the phosphorylation enrichment (Fer (mouse)) was 0.521 and the phosphorylation enrichment (Fyn) was 0.32. It also gave a phosphorylation enrichment (FGFR1) of 0.402, a phosphorylation enrichment (MERTK) of 0.368 and a phosphorylation enrichment (FGFR3) of 0.88. It also gave a phosphorylation enrichment (Fes) of 0.536, a phosphorylation enrichment (c-Src) of 0.366 and a phosphorylation enrichment (c-Abl (mouse)) of 0.391. For the same sequence, the phosphorylation enrichment (Hck) was 0.55.
FMRGMYFRMKD [PLA2G6_Y541_YF] showed an SH2 binding enrichment (Grb2 SH2) of 0.897, an SH2 binding enrichment (SHP2-C SH2) of 1.17 and an SH2 binding enrichment (c-Src SH2) of 0.767. It also gave a phosphorylation enrichment (AncSZ) of 1.16, a phosphorylation enrichment (Jak2) of 1.14 and a phosphorylation enrichment (EPHB1) of 0.518. It also gave a phosphorylation enrichment (EPHB2) of 0.542, a phosphorylation enrichment (Fer (mouse)) of 0.399 and a phosphorylation enrichment (Fyn) of 0.455. It also gave a phosphorylation enrichment (FGFR1) of 0.442, a phosphorylation enrichment (MERTK) of 0.419 and a phosphorylation enrichment (FGFR3) of 0.657. The phosphorylation enrichment (Fes) was 1.12, the phosphorylation enrichment (c-Src) was 0.417 and the phosphorylation enrichment (c-Abl (mouse)) was 0.645. It also gave a phosphorylation enrichment (Hck) of 0.428.
Work on QAKRKYQEVSK [FES_Y156_A159V] yielded an SH2 binding enrichment (Grb2 SH2) of 0.957, an SH2 binding enrichment (SHP2-C SH2) of 0.448 and an SH2 binding enrichment (c-Src SH2) of 0.616. For the same sequence, the phosphorylation enrichment (AncSZ) was 0.463, the phosphorylation enrichment (Jak2) was 0.227 and the phosphorylation enrichment (EPHB1) was 0.231. For the same sequence, the phosphorylation enrichment (EPHB2) was 0.443, the phosphorylation enrichment (Fer (mouse)) was 0.233 and the phosphorylation enrichment (Fyn) was 0.365. For the same sequence, the phosphorylation enrichment (FGFR1) was 0.424, the phosphorylation enrichment (MERTK) was 0.311 and the phosphorylation enrichment (FGFR3) was 0.37. The phosphorylation enrichment (Fes) was 0.257, the phosphorylation enrichment (c-Src) was 0.193 and the phosphorylation enrichment (c-Abl (mouse)) was 0.326. It also gave a phosphorylation enrichment (Hck) of 0.373.
RASSSYRETPS [SORBS1_Y79] gave an SH2 binding enrichment (Grb2 SH2) of 0.876, an SH2 binding enrichment (SHP2-C SH2) of 0.844 and an SH2 binding enrichment (c-Src SH2) of 0.491. For the same sequence, the phosphorylation enrichment (AncSZ) was 0.681, the phosphorylation enrichment (Jak2) was 1.49 and the phosphorylation enrichment (EPHB1) was 0.361. For the same sequence, the phosphorylation enrichment (EPHB2) was 0.337, the phosphorylation enrichment (Fer (mouse)) was 0.513 and the phosphorylation enrichment (Fyn) was 0.655. It also gave a phosphorylation enrichment (FGFR1) of 0.611, a phosphorylation enrichment (MERTK) of 0.644 and a phosphorylation enrichment (FGFR3) of 0.68. It also gave a phosphorylation enrichment (Fes) of 0.659, a phosphorylation enrichment (c-Src) of 0.775 and a phosphorylation enrichment (c-Abl (mouse)) of 0.757. The phosphorylation enrichment (Hck) was 0.502.
In the case of PARLEYFENEK [IRS1_Y46_YF], the SH2 binding enrichment (Grb2 SH2) is reported as 0.834, the SH2 binding enrichment (SHP2-C SH2) is reported as 0.817 and the SH2 binding enrichment (c-Src SH2) is reported as 0.647. For the same sequence, the phosphorylation enrichment (AncSZ) was 1.35, the phosphorylation enrichment (Jak2) was 2 and the phosphorylation enrichment (EPHB1) was 0.714. It also gave a phosphorylation enrichment (EPHB2) of 0.777, a phosphorylation enrichment (Fer (mouse)) of 0.661 and a phosphorylation enrichment (Fyn) of 0.471. It also gave a phosphorylation enrichment (FGFR1) of 1.03, a phosphorylation enrichment (MERTK) of 0.784 and a phosphorylation enrichment (FGFR3) of 0.957. For the same sequence, the phosphorylation enrichment (Fes) was 1.61, the phosphorylation enrichment (c-Src) was 0.684 and the phosphorylation enrichment (c-Abl (mouse)) was 0.999. It also gave a phosphorylation enrichment (Hck) of 0.709.
